Assays:
[1] = target: T1, CD3 on the surface of CD3-transfected Jurkat cells; test: flow cytometry on CD3-transfected Jurkat cells
T1 construct: whole, on cells; also called CD3 expressing Jurkat cells
Method: (§1) Cells were detached and transferred to a 96 well microtiter plate at a concentration of 100.000-250.000 per well in 100 μl PBA (2% FCS, 0.2% NaN3 in sterile PBS).

[2] = target: T2, human TNFR1-Fc fusion protein (human, UniProt P19438 30-211); test: ELISA, human TNFR1-Fc fusion protein
T2 construct: Provided by Baliopharm AG; Coated at 1 ug/ml in the ELISA; also called huTNFR1-Fc; immobilized human TNFR1; not shown: Fc part not described
T2 sequence (looked up): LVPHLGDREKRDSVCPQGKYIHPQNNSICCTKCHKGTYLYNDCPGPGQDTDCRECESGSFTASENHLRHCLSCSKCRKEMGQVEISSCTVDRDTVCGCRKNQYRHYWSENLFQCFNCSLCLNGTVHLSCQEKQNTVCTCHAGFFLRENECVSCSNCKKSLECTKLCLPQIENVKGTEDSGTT
Method: Microtiter plates were coated with 100 μl of TNFFR1-Fc fusion protein (1 μg/ml in PBS) and incubated at 4° C. overnight.

[3] = target: T3, TNFR1 on the surface of cells (HT1080, HeLa, Kym-1) (human, UniProt P19438 30-455); test: flow cytometry on TNFR1-expressing HT1080 cells
T3 construct: whole, on cells; also called TNFR1 expressing HT1080 cells
T3 sequence (looked up): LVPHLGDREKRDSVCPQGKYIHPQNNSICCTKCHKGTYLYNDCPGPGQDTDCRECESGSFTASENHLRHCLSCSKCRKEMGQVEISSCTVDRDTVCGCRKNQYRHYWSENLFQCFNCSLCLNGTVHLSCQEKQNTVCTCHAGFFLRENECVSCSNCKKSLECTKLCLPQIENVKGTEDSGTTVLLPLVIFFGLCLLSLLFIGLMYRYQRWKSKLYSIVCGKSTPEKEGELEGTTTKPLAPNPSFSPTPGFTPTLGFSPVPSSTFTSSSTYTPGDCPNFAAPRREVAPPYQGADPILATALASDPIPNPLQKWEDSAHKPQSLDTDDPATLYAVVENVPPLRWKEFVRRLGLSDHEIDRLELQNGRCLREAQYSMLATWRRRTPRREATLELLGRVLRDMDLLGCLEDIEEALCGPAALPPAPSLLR
Method: as §1

[4] = target: T3, TNFR1 on the surface of cells (HT1080, …); test: cell-based or functional assay

T1 sequence (P07766 23-207): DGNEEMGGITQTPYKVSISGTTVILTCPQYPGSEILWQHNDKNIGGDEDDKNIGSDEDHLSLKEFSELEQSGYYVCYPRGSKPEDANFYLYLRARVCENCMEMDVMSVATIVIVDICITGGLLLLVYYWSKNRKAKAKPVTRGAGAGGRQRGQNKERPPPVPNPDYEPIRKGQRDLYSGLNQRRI

B1: 13.7N-CD3N-hFc1k (bispecific antibody)
chain 1: HVQLVQSGAEVKKPGSSVKVSCKASGYTFTDFYINWVRQAPGQGLEWIGEIVPSQGEAKYNDKFKARVTITADKSTSTAYMELSSLRSEDTAVYYCARWDFLDYWGQGTTVTVSSGGGGSGGGGSGGGGSDVQMTQSPSSLSASVGDRVTITCRSSQSLLHSNGNTYLHWYQQKPGKAPKLLIYTVSNRFSGVPSRFSGSGSGTDFTLTISSLQPEDFATYYCSQSTHVPYTFGGGTKVEIKAAADKTHTCPPCPAPPVAGPSVFLFPPKPKDTLMISRTPEVTCVVVDVSHEDPEVKFNWYVDGVEVHNAKTKPREEQYNSTYRVVSVLTVLHQDWLNGKEYKCKVSNKGLPSSIEKTISKAKGQPREPSVFPLAPSSKSTSGGTAALGCLVKDYFPSDIAVEWESGALTSGVHTFPAVLQSSGLYSLSSVVTVPSSSLGTQTYSCSVMHEALHNHYTQKSVEPKSC
chain 2: DIQMTQSPSSLSASVGDRVTITCRASQDIRNYLNWYQQKPGKAPKLLIYYTSRLHSGVPSRFSGSGSGTDFTFTISSLQPEDIATYYCQQGNTLPWTFGQGTKLEIKRGGGGSGGGGSGGGGSQVQLVQSGAEVKKPGSSVKVSCKASGGTFSGYTMNWVRQAPGQGLEWMGLINPYKGVSTYNGKFKDRVTITADKSTSTAYMELSSLRSEDTAVYYCARSGYYGDSDWYFDVWGQGTLVTVSSSGGGSGGGGSDKTHTCPPCPAPPVAGPSVFLFPPKPKDTLMISRTPEVTCVVVDVSHEDPEVKFNWYVDGVEVHNAKTKPREEQYNSTYRVVSVLTVLHQDWLNGKEYKCKVSNKGLPSSIEKTISKAKGQPREPSVFIFPPSDEQLKSGTASVVCLVNNFYPRDIAVEWEVDNALQSGNSQESVTEQDSKDSTYSLSSTLTLSKADYEKHKVYSCSVMHEALHNHYTQKSFNRGECGGGGSGGGGSGGGGSGTGGSGG
notes: also called scFv13.7-CD3-Hinge-Fc1k
[1]
  EC50: 1.6 nM
[2]
  EC50: 3.5 nM
[3]
  EC50: 3.7 nM
[4]
  Cytotxicity IC50: 0.8 nM

From patent publication US20200172619A1 (UNIVERSIT T STUTTGART, published 2020)
